Drawing on PMC2840211, this text covers Kd, koff and stoichiometry N for six molecules.

In assay [1] the target is RAE-1δ (Mus musculus) (UniProt Q9JI58). The settings on record: cited from earlier work.
For assay [2], the target named is ectodomain of m152 (mouse cytomegalovirus m152/gp40 immunoevasin) (mouse cytomegalovirus (MCMV)). Briefly: AUC.
Assay [3] has the same target. In words: AUC. The source holds these as a separate data set.
For assay [4] the target is unchanged. Briefly: ITC. (In general: Isothermal titration calorimetry measures the heat released or taken up as one component is titrated into another.)

Broadly, the Kd is the constant that tells how readily two partners part at equilibrium. One may read the koff as the rate constant with which the complex falls apart. Lower therefore signals a long-lived complex. The term stoichiometry N denotes the number of molecules, sites or subunits per partner or assembly.

Chain of UniProt Q9JI58 (Q9JI58 29-225, stated change not applied): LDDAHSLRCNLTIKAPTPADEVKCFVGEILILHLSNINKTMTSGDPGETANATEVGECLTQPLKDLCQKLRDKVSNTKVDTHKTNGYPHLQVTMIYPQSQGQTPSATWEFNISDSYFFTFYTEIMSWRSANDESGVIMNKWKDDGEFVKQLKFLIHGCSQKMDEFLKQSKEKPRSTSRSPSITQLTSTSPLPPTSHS

For the molecule NKG2D (from UniProt O54709), in assay [1], the Kd is 726 nM.

B1: ectodomain of RAE-1β PLWY-deletion mutant (domain or fragment)
chain: GLDDAHSLRCNLTIKDPTPADEAKCFVGEILILHLSNINKTMTSGDPGETANATEVKKCLTQPLKNLCQKLRNKVSNTKVDTHKTNGYPHLQVTMIYPQSQGRTPSATWEFNISDSYFFTFYTENMSWRSANDESGVIMNKWKDDGEFVKQLKFLIHECSQKMDEFLKQSKEKP
In turn, B1 returned a Kd in assay [2] of 31000 nM.

B2: ectodomain of RAE-1δ (domain or fragment)
chain: GLDDAHSLRCNLTIKAPTPADEVKCFVGEILILHLSNINKTMTSGDPGETANATEVGECLTQPLKDLCQKLRDKVSNTKVDTHKTNGYPHLQVTMIYPQSQGQTPSATWEFNISDSYFFTFYTEIMSWRSANDESGVIMNKWKDDGEFVKQLKFLIHGCSQKMDEFLKQSKEKP
The molecule B2 showed a Kd in assay [2] of 34000 nM.

B3: ectodomain of RAE-1β (domain or fragment)
chain: GLDDAHSLRCNLTIKDPTPADPLWYEAKCFVGEILILHLSNINKTMTSGDPGETANATEVKKCLTQPLKNLCQKLRNKVSNTKVDTHKTNGYPHLQVTMIYPQSQGRTPSATWEFNISDSYFFTFYTENMSWRSANDESGVIMNKWKDDGEFVKQLKFLIHECSQKMDEFLKQSKEKP
B3 returned a Kd in assay [3] of 1700 nM. The molecule also showed a Kd in assay [4] of 2100 nM. In assay [2], this molecule returned a Kd of 4100 nM, a koff of more than 0.001 s⁻¹ and a stoichiometry N of 1.

B4: ectodomain of RAE-1γ PLWY-deletion mutant (domain or fragment)
chain: GLDDAHSLRCNLTIKAPTPADEAKCLVDEILILHLSNINKTMTSGDPGETANATEVGECLTQPVNDLCQKLRDKVSNTKVDTHKTNGYPHLQVTMIYPQSQGQTPSATWEFNISDSYFFTFYTENMSWRSANDESGVIMNKWNDDGDLVQRLKYFIPECRQKIDEFLKQSKEKP
Take B4: in assay [2], the Kd was 1400 nM.

B5: ectodomain of RAE-1γ (domain or fragment)
chain: GLDDAHSLRCNLTIKAPTPADPLWYEAKCLVDEILILHLSNINKTMTSGDPGETANATEVGECLTQPVNDLCQKLRDKVSNTKVDTHKTNGYPHLQVTMIYPQSQGQTPSATWEFNISDSYFFTFYTENMSWRSANDESGVIMNKWNDDGDLVQRLKYFIPECRQKIDEFLKQSKEKP
On to B5, for which the Kd in assay [2] was determined as 1000 nM.
